Measurements reported in publication PMC3665890.

Target: FITC-conjugated Mouse transferrin (UniProt Q921I1)
Assay: flow cytometry on cells
Conditions: read off a plot

Sequence of UniProt Q921I1 (Q921I1 whole entry, looked up): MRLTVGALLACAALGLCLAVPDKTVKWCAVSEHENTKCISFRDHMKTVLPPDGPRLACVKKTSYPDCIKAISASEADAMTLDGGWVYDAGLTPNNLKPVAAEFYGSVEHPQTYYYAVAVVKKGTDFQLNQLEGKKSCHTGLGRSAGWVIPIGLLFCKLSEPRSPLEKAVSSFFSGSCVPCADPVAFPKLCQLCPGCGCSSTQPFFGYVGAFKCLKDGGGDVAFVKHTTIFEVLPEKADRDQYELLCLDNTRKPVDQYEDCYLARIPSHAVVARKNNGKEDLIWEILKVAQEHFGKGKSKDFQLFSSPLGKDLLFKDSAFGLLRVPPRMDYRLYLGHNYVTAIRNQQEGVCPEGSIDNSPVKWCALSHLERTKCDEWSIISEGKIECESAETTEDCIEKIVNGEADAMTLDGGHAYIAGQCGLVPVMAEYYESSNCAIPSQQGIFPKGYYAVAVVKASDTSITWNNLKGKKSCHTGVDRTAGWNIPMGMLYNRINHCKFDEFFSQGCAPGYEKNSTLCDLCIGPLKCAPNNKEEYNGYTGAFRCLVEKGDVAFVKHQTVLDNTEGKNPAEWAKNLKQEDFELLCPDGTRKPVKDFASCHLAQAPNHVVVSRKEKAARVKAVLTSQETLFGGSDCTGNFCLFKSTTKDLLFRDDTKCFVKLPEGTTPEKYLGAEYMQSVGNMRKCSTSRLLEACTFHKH

Row | Substance | response (parent: est. 1100) [m.f.i.] | response (MDCK cells stably expressing TfR1-FLAG, incubated with media containing FITC-labeled iron-loaded mouse transferrin, three replicates, parent: est. 580) [m.f.i.]
1 | house mouse (Mus musculus) TfR1, wild type, C-terminal FLAG (from UniProt Q62351) A296S; R569I; A575L | 910 | –
2 | zygodont (Zygodontomys brevicauda) TfR1, wild type, C-terminal FLAG S296A; N569R; S575A | – | 590
